Two molecules from US9598497B2, “RSPO3 binding agents and uses thereof” (OncoMed Pharmaceuticals, Inc., priority 2012, dated 2017) can be followed below.

Experiment [1] deals with OMP-LU45 non-small cell lung tumors. Briefly: OMP-LU45 lung tumor xenograft growth. The following applies: 25 mg/kg once a week intraperitoneal, vs control antibody, FIG. 7A. It counts as in vivo, NOD/SCID mice. Here is the method: In OMP-LU45 non-small cell lung tumors, it has been observed that CD201^+ cells are more tumorigenic than CD201^− cells. […] Dissociated and sorted OMP-LU45 CD44^+CD201^+ lung tumor cells (5×10^4 cells) were injected into 6-8 week old NOD/SCID mice. Tumors were allowed to grow for 38 days until they reached an average volume of 140 mm^3. The mice were randomized (n=10 per group) and treated with anti-RSPO3 antibody 131R002 or a control antibody. […] Data are expressed as mean±S.E.M.

The test system of experiment [2] is gene sets characteristic of normal stem cells or cancer stem cells. The experiment can be described thus: Microarray gene set enrichment analysis of treated OMP-LU102 tumors. It counts as in vivo, NOD-SCID mice. The following applies: RNA from OMP-LU102 tumors after treatment, FIG. 11B. As for the experimental part: RNA was prepared from tumors from each of the four experimental groups following the treatment. Gene expression was characterized by microarray analysis.

The subject of experiment [3] is RSPO3-induced β-catenin signaling. Briefly: TOPflash 6xTCF-luciferase reporter assay in HEK-293 cells with WNT3a and RSPO3. It counts as cell-based, human. Here is the method:
HEK-293 cells were transfected with a 6×TCF-luciferase reporter vector (TOPflash, Millipore, Billerica, Mass.). After 24-48 hrs, the transfected HEK-293 cells were incubated with a combination of WNT3a (5 ng/ml) and human RSPO3 (10 ng/ml, R&D BioSystems, Minneapolis, Minn.) in the presence of anti-RSPO3 antibodies 131R002 and 131R003. Antibodies 131R002 and 131R003 were added to the cells in 4-fold serial dilutions from 20 μg/ml to 0.02 μg/ml. As controls, cells were incubated with a combination of WNT3a and RSPO3, WNT3a only, RSPO3 only, or with no addition. The cells were incubated for 16 hours and luciferase activity was measured using Steady-Glo® Luciferase Assay System according to the manufacturer's instructions (Promega, Madison, Wis.).
HEK-293 cells were transfected with a 6×TCF-luciferase reporter vector (TOPflash, Millipore, Billerica, Mass.). After 24-48 hrs, the transfected HEK-293 cells were incubated with a combination of WNT3a and human RSPO3 in the presence of anti-RSPO3 antibodies 131R003, 131R003 CDR1 variant and 131R003 CDR3 variant. 131R003, 131R003 CDR1 variant, and 131R003 CDR3 variant were added to the cells in 5-fold serial dilutions from 20 μg/ml to 0.006 μg/ml. As controls, cells were incubated with a combination of WNT3a and RSPO3, WNT3a only, RSPO3 only, a control antibody, or with no addition. The cells were incubated for 16 hours and luciferase activity was measured using Steady-Glo® Luciferase Assay System according to the manufacturer's instructions (Promega, Madison, Wis.).
HEK-293 cells were transfected with a 6×TCF-luciferase reporter vector (TOPflash, Millipore, Billerica, Mass.). After 24-48 hrs, the transfected HEK-293 cells were incubated with a combination of WNT3a conditioned medium (5 ng/ml) and human RSPO3 (10 ng/ml, R&D BioSystems) in the presence of anti-RSPO3 antibodies 131R002, 131R006B, or 131R007. Antibodies 131R002, 131R006 or 131R007 were added to the cells in 5-fold serial dilutions from 20 μg/ml to 0.0064 μg/ml. As controls, cells were incubated with WNT3a conditioned medium alone, a combination of WNT3a conditioned medium and human RSPO3, or with no addition to cells. The cells were incubated for 16 hours and luciferase activity was measured using Steady-Glo® Luciferase Assay System according to the manufacturer's instructions (Promega, Madison, Wis.).
HEK-293 cells were transfected with a 6×TCF-luciferase reporter vector (TOPflash, Millipore, Billerica, Mass.). […] The cells were incubated for 16 hours and luciferase activity was measured using Steady-Glo® Luciferase Assay System according to the manufacturer's instructions (Promega, Madison, Wis.).

Another experiment deals with OMP-LU25 lung tumor. Briefly: OMP-LU25 lung tumor xenograft growth. The following applies: 25 mg/kg once a week intraperitoneal, vs control antibody, FIG. 7B. It counts as in vivo, NOD/SCID mice. As for the experimental part: In a study with a second lung tumor, dissociated OMP-LU25 lung tumor cells (5×10^4 cells) were injected into 6-8 week old NOD/SCID mice. Tumors were allowed to grow for 48 days until they reached an average volume of 110 mm^3. The mice were randomized (n=9 per group) and treated with anti-RSPO3 antibody 131R002 or a control antibody. […] Data are expressed as mean±S.E.M.
OMP-LU25 tumor cells (5×10^4) were injected into NOD-SCID mice. Tumors were allowed to grow for 33 days until they reached an average volume of 120 mm^3. Tumor-bearing mice were randomized into 4 groups (n=9 per group). Tumor-bearing mice were treated with either control antibody, anti-RSPO3 antibody 131R008, paclitaxel, or the combination of anti-RSPO3 antibody 131R008 and paclitaxel. Antibodies were dosed weekly at 20 mg/kg. Paclitaxel was dosed weekly at 15 mg/kg.

In the next experiment the test system is OMP-LU102 lung tumor. Briefly: OMP-LU102 NSCLC xenograft growth. It counts as in vivo, NOD-SCID mice. The following applies: antibody 25 mg/kg once a week, carboplatin 50 mg/kg once a week, FIG. 11A. As for the experimental part:
OMP-LU102 is a patient-derived non-small cell lung cancer (NSCLC) xenograft that was selected for testing based on a high level of RSPO3 expression in microarray data. OMP-LU102 lung tumor cells (1×10^5) were injected into NOD-SCID mice. […] Carboplatin was dosed at 50 mg/kg once a week.

The next experiment addresses T1, binding of RSPO3 to LGR5 (Homo sapiens, UniProt Q9BXY4).
T1 construct: expressed in transfected cells; host or cells: HEK-293T
T1 sequence (Q9BXY4 22-272): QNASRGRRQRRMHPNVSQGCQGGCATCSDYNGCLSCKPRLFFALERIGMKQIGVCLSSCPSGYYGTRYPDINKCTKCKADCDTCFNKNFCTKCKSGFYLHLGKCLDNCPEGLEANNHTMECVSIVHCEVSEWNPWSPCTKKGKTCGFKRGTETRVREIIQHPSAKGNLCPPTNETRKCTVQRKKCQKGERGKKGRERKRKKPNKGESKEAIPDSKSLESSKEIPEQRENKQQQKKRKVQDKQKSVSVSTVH
Briefly: FACS inhibition of RSPO3-biotin binding to LGR5-expressing HEK-293T cells. The following applies: PE-streptavidin, flow cytometry, FIG. 9. As for the experimental part:
HEK-293T cells were transfected with a cDNA expression vector that encoded the extracellular domain of human LGR5 (FLAG-LGR5-CD4TM-GFP). Transfected cells were incubated with recombinant RSPO3-biotin fusion protein in the presence of anti-RSPO3 antibodies 131R006B or 131R007. Cells were incubated without antibody as a control. Cells were washed in PBS and binding of RSPO3 to LGR5-expressing transfected cells was determined by addition of PE-conjugated streptavidin and analysis by flow cytometry.
(In general: Flow cytometry measures light scatter and fluorescence of single cells or particles in a stream.)

In another experiment the target is T2, human RSPO3 (Homo sapiens, UniProt Q9BXY4).
T2 construct: purchased R&D Systems
T2 sequence (Q9BXY4 22-272): T1 sequence (Q9BXY4 22-272)
The experiment can be described thus: Biacore 2000 affinity, antibody captured by anti-human IgG, RSPO3 injected (Example 10). It counts as binding. The following applies: human RSPO3 300 nM to 37.5 nM over captured antibody, Table 4. Here is the method:
The method used was different than described in Example 3. A goat anti-human IgG antibody was coupled to a carboxymethyl-dextran (CM5) SPR chip using standard amine-based chemistry (NHS/EDC) and blocked with ethanolamine. Antibodies (purified antibody or culture supernatant) were diluted to a concentration of 10 μg/ml in HBS-P-BSA (0.01M HEPES pH7.4, 0.15M NaCl, 0.005% v/v Polysorbate 20, 100 ug/ml BSA) and captured onto the chip via the anti-human IgG antibody. Human RSPO3 (R&D Systems) was serially diluted 2-fold from 300 nM to 37.5 nM in HBS-P-BSA and injected sequentially over the captured anti-RSPO3 antibodies. RSPO3 association and dissociation was measured at each concentration. After each antigen injection 5 μl of 100 mM H3P04 was injected to remove the antigen-antibody complex and a subsequent injection performed. Kinetic data were collected over time and were fit using the simultaneous global fit equation to yield affinity constants (KD values) for each antibody (Table 4).
A general note: SPR reads the build-up and loss of mass on a sensor chip optically.

Numbering of substitutions follows the chain as printed.

B1: 131R002: anti-RSPO3 antibody from a mammalian cell antibody library; heavy chain variable region SEQ ID NO:15, light chain variable region SEQ ID NO:17 (antibody, V domains shown)
VH: QVQLQESGPELVKPGASVKISCKASGYTFTDYSIHWVKQNHGKSLDWIGYIYPSNGDSGYNQKFKNRATLTVDTSSSTAYLEVRRLTFEDSAVYYCATYFANYFDYWGQGTTLTVSSAST
VL: DIVLTQSPASLAVSLGQRATISCKASQSVDYDGDSYMNWYQQKPGQPPKLLIYAASNLESGIPARFSGSGSGTDFTLNIHPVEEEDAATYYCQQSNEDPLTFGAGTKLELKR
modifications: 131R002 Heavy chain variable region; 131R002/131R003 Light chain variable region
B1: the “OMP-LU45 lung tumor growth” value in experiment [1] is on record as “inhibited growth”. In addition, the “expression of gene sets characteristic of normal stem cells or cancer stem cells” value in experiment [2] was “inhibited the expression of various gene sets characteristic of normal stem cells or cancer stem cells”. In addition, the “RSPO3-induced β-catenin signaling” value in experiment [3] (WNT3a 5 ng/ml + RSPO3 10 ng/ml, antibody 20 to 0.02 μg/ml, FIG. 3) is on record as “reduced RSPO3-induced β-catenin signaling in a dose-dependent manner”. For the same molecule, in the experiment on OMP-LU25 lung tumor, the “OMP-LU25 lung tumor growth” value is given as “inhibited growth”. Moreover, the “OMP-LU102 lung tumor growth” value in the experiment with OMP-LU102 lung tumor was “inhibited OMP-LU102 lung tumor growth as a single agent”.

B2: h131R007: humanized 131R003 variant, IgG2; heavy chain variable region SEQ ID NO:44, light chain variable region SEQ ID NO:72 (antibody, V domains shown)
VH: QVQLVQSGAEVKKPGASVKVSCKASGYTFTDYSIHWVRQAPGQGLEWIGYIYPSNGDSGYNQKFKNRVTMTRDTSTSTAYMELSRLRSEDTAVYYCATYFANNFDYWGQGTTLTVSS
VL: B1 VL with S22T, N78T, H80N, E84A, A87V
modifications: Humanized 131R005/131R007/131R008/ 131R010/131R011 Heavy chain variable region; Humanized 131R005/131R007/131R008 Light chain variable region
For B2, the “blocking binding of RSPO3 to LGR5-expressing cells” value with binding of RSPO3 to LGR5 is reported as “highly effective in blocking binding of RSPO3 to LGR5-expressing cells”. For the same molecule, the “ability to inhibit β-catenin activity compared with 131R002” value in experiment [3] (WNT3a conditioned medium 5 ng/ml + human RSPO3 10 ng/ml, FIG. 8) is “greater ability to inhibit β-catenin activity than antibody 131R002”. Also, in the experiment with human RSPO3, the Kd (usually the equilibrium constant for the complex coming apart) amounted to 0.654 nM.
